According to patent US20120010178A1, “METHODS AND COMPOUNDS FOR TREATMENT OF NEURODEGENERATIVE DISORDERS” (PRESIDENT AND FELLOWS OF HARVARD COLLEGE, priority 2008, published 2012):

System: SMN
Assay: SMN levels in mouse (ES-cell derived) motor neurons
Type: cell-based
Details: mouse motor neurons
Description: Mouse HB9-GFP derived SMN deficient motor neuron cells were incubated for 2 days with compounds from libraries and collections.
Motor neurons were produced from mouse ES-cells expressing cherry fluorescent protein (CFP) under the control of the motor neuron-selective Hb9 promoter, as previously described (Wichterle et al., 2002).
GFP expressing motor neurons were derived from mouse ES cells as described below. After growing for approximately 1 week, motor neurons were treated with allsterpaullone. Two days after treatment with allsterpaullone, cells were fixed and stained with SMN antibody or GFP antibody.
mES cells were differentiated into motor neurons according to methods adapted from Wichterle et. al., Cell (2002), 110:385-397. Briefly, mES cells were grown to 70-80% confluence in 10-cm plates (Falcon) in ES cell medium. To form embryoid bodies, cells were washed once with PBS to eliminate mES medium and then incubated with 1 ml of 0.25% trypsin (GIBCO) for 5-10 min at 21-25° C. (RT). Cells were then resuspended in 10 ml of DM1 medium (DMEM-F12, GIBCO), 10% knockout serum (GIBCO), penicillin, streptomycin, glutamine (GIBCO) and 2-mercaptoethanol (GIBCO), counted and plated at a concentration of 200,000 cells per ml in Petri dishes (Falcon). […] The cells were counted and plated on poly-ornithine coated 96-well plates (VWR).

B1: BMP4: bone morphogenetic protein 4, BMP/TGFβ ligand (protein, UniProt P12644 293-408, looked up)
Bone morphogenetic protein 4: SPKHHSQRARKKNKNCRRHSLYVDFSDVGWNDWIVAPPGYQAFYCHGDCPFPLADHLNSTNHAIVQTLVNSVNSSIPKACCVPTELSAISMLYLDEYDKVVLKNYQEMVVEGCGCR
  SMN levels in motor neurons (in words): increase SMN levels
